The target in the series is cardiac troponin T (cTn-T) (UniProt P45379). The series can be described thus: electrochemical aptasensor. The note with it: thiol (end not stated); Protein in 10 mM PBS pH 7.4, 30 min on BSA-blocked electrode, PBS wash; read in 0.10 M KCl with 5.0 mM K3/K4[Fe(CN)6]; temperature not stated.

Drawing on publication PMC9599711, this text covers binding signal (% normalized response) for one sequence.

As to “CGTGCAGTACGCCAACCTTTCTCATGCGCTGCCCCTCTTA [cTn-I aptamer (Jo et al.)]”, the binding signal (% normalized response) was under 5.
